47 variants from the Human Domainome abundance scans (Beltran et al. 2025) can be followed below.

± gives the uncertainty stated by the source.

Sequences and labels used below:
B1: POU domain, class 3, transcription factor 2, residues 356 to 411; numbered along this chain, P20265 (parent)
chain: KKRTSIEVSVKGALESHFLKCPKPSAQEITSLADSLQLEKEVVRVWFCNRRQKEKR

The variants in the series derive from B1. As to the kind of experiment: abundance fitness (aPCA) (normalised: wild type 0, dead -1); higher = more abundant; growth selection in yeast, the domain comes from the species named. The following applies: Homo sapiens.
For KKRTSIEVVVKGALESHFLKCPKPSAQEITSLADSLQLEKEVVRVWFCNRRQKEKR, the abundance fitness was -0.123 ± 0.083.
KKRTSIEVWVKGALESHFLKCPKPSAQEITSLADSLQLEKEVVRVWFCNRRQKEKR: the abundance fitness amounted to 0.004 ± 0.11.
Take KKRTSIEVYVKGALESHFLKCPKPSAQEITSLADSLQLEKEVVRVWFCNRRQKEKR: the abundance fitness was -0.267 ± 0.19.
With KKRTSIEVTVKGALESHFLKCPKPSAQEITSLADSLQLEKEVVRVWFCNRRQKEKR, the abundance fitness was determined as 0.09 ± 0.091.
On to KKRTSIEVSQKGALESHFLKCPKPSAQEITSLADSLQLEKEVVRVWFCNRRQKEKR, for which the abundance fitness was -0.13 ± 0.17.
For KKRTSIEVSEKGALESHFLKCPKPSAQEITSLADSLQLEKEVVRVWFCNRRQKEKR, the abundance fitness is -0.068 ± 0.13.
Take KKRTSIEVSRKGALESHFLKCPKPSAQEITSLADSLQLEKEVVRVWFCNRRQKEKR: the abundance fitness was -0.266 ± 0.09.
For KKRTSIEVSLKGALESHFLKCPKPSAQEITSLADSLQLEKEVVRVWFCNRRQKEKR the value was -0.134 ± 0.091; for KKRTSIEVSIKGALESHFLKCPKPSAQEITSLADSLQLEKEVVRVWFCNRRQKEKR, -0.013 ± 0.12; for KKRTSIEVSMKGALESHFLKCPKPSAQEITSLADSLQLEKEVVRVWFCNRRQKEKR, -0.134 ± 0.16.
Consider KKRTSIEVSWKGALESHFLKCPKPSAQEITSLADSLQLEKEVVRVWFCNRRQKEKR, for which the abundance fitness was -0.19 ± 0.1.
Turning to KKRTSIEVSFKGALESHFLKCPKPSAQEITSLADSLQLEKEVVRVWFCNRRQKEKR, the abundance fitness was -0.568 ± 0.21.
Regarding KKRTSIEVSPKGALESHFLKCPKPSAQEITSLADSLQLEKEVVRVWFCNRRQKEKR, the abundance fitness was -0.554 ± 0.17.
KKRTSIEVSTKGALESHFLKCPKPSAQEITSLADSLQLEKEVVRVWFCNRRQKEKR: the abundance fitness was 0.046 ± 0.11.
As to KKRTSIEVSAKGALESHFLKCPKPSAQEITSLADSLQLEKEVVRVWFCNRRQKEKR, the abundance fitness is -0.036 ± 0.08.
With KKRTSIEVSHKGALESHFLKCPKPSAQEITSLADSLQLEKEVVRVWFCNRRQKEKR, the abundance fitness was -0.095 ± 0.24.
Turning to KKRTSIEVSGKGALESHFLKCPKPSAQEITSLADSLQLEKEVVRVWFCNRRQKEKR, the abundance fitness was -0.318 ± 0.077.
As for KKRTSIEVSKKGALESHFLKCPKPSAQEITSLADSLQLEKEVVRVWFCNRRQKEKR, the abundance fitness was 0.041 ± 0.12.
On to KKRTSIEVSCKGALESHFLKCPKPSAQEITSLADSLQLEKEVVRVWFCNRRQKEKR, for which the abundance fitness was -0.294 ± 0.14.
KKRTSIEVSVKGALCSHFLKCPKPSAQEITSLADSLQLEKEVVRVWFCNRRQKEKR: the abundance fitness was -0.612 ± 0.18.
As for KKRTSIEVSVKGALGSHFLKCPKPSAQEITSLADSLQLEKEVVRVWFCNRRQKEKR, the abundance fitness was -0.885 ± 0.11.
Then KKRTSIEVSVKGALASHFLKCPKPSAQEITSLADSLQLEKEVVRVWFCNRRQKEKR, with -0.88 ± 0.15; and KKRTSIEVSVKGALHSHFLKCPKPSAQEITSLADSLQLEKEVVRVWFCNRRQKEKR, with -0.805 ± 0.36.
In the case of KKRTSIEVSVKGALDSHFLKCPKPSAQEITSLADSLQLEKEVVRVWFCNRRQKEKR, the abundance fitness was -0.623 ± 0.18.
As to KKRTSIEVSVKGAGESHFLKCPKPSAQEITSLADSLQLEKEVVRVWFCNRRQKEKR, the abundance fitness was -0.882 ± 0.12.
KKRTSIEVSVKGAQESHFLKCPKPSAQEITSLADSLQLEKEVVRVWFCNRRQKEKR: the abundance fitness is -0.848 ± 0.21.
As to KKRTSIEVSVKGAAESHFLKCPKPSAQEITSLADSLQLEKEVVRVWFCNRRQKEKR, the abundance fitness was -1.04 ± 0.22.
Take KKRTSIEVSVKGAWESHFLKCPKPSAQEITSLADSLQLEKEVVRVWFCNRRQKEKR: the abundance fitness is -0.915 ± 0.14.
Take KKRTSIEVSVKGAKESHFLKCPKPSAQEITSLADSLQLEKEVVRVWFCNRRQKEKR: the abundance fitness is -0.933 ± 0.2.
KKRTSIEVSVKGAFESHFLKCPKPSAQEITSLADSLQLEKEVVRVWFCNRRQKEKR: the abundance fitness is -0.814 ± 0.22.
KKRTSIEVSVKGAEESHFLKCPKPSAQEITSLADSLQLEKEVVRVWFCNRRQKEKR: the abundance fitness was -0.794 ± 0.23.
As for KKRTSIEVSVKGAIESHFLKCPKPSAQEITSLADSLQLEKEVVRVWFCNRRQKEKR, the abundance fitness was -0.706 ± 0.27.
As to KKRTSIEVSVKGAMESHFLKCPKPSAQEITSLADSLQLEKEVVRVWFCNRRQKEKR, the abundance fitness was -0.501 ± 0.13.
Take KKRTSIEVSVKGACESHFLKCPKPSAQEITSLADSLQLEKEVVRVWFCNRRQKEKR: the abundance fitness was -0.78 ± 0.2.
KKRTSIEVSVKGARESHFLKCPKPSAQEITSLADSLQLEKEVVRVWFCNRRQKEKR: the abundance fitness was -0.855 ± 0.092.
For the variant KKRTSIEVSVKGANESHFLKCPKPSAQEITSLADSLQLEKEVVRVWFCNRRQKEKR, the abundance fitness is -0.632 ± 0.23.
Consider KKRTSIEVSVKGAHESHFLKCPKPSAQEITSLADSLQLEKEVVRVWFCNRRQKEKR, for which the abundance fitness is -0.762 ± 0.2.
Then KKRTSIEVSVKGAVESHFLKCPKPSAQEITSLADSLQLEKEVVRVWFCNRRQKEKR, with -0.641 ± 0.13; and KKRTSIEVSVKGASESHFLKCPKPSAQEITSLADSLQLEKEVVRVWFCNRRQKEKR, with -0.923 ± 0.11; and KKRTSIEVSVKGATESHFLKCPKPSAQEITSLADSLQLEKEVVRVWFCNRRQKEKR, with -0.953 ± 0.22.
For KKRTSIEVSVKGELESHFLKCPKPSAQEITSLADSLQLEKEVVRVWFCNRRQKEKR the value was -0.067 ± 0.1.
With KKRTSIEVSVKGHLESHFLKCPKPSAQEITSLADSLQLEKEVVRVWFCNRRQKEKR, the abundance fitness was -0.196 ± 0.2.
Turning to KKRTSIEVSVKGFLESHFLKCPKPSAQEITSLADSLQLEKEVVRVWFCNRRQKEKR, the abundance fitness is -0.019 ± 0.19.
On to KKRTSIEVSVKGILESHFLKCPKPSAQEITSLADSLQLEKEVVRVWFCNRRQKEKR, for which the abundance fitness was -0.184 ± 0.15.
KKRTSIEVSVKGYLESHFLKCPKPSAQEITSLADSLQLEKEVVRVWFCNRRQKEKR: the abundance fitness was -0.142 ± 0.12.
On to KKRTSIEVSVKGRLESHFLKCPKPSAQEITSLADSLQLEKEVVRVWFCNRRQKEKR, for which the abundance fitness came to 0.083 ± 0.08.
For KKRTSIEVSVKGCLESHFLKCPKPSAQEITSLADSLQLEKEVVRVWFCNRRQKEKR, the abundance fitness was -0.044 ± 0.11.
